This series relates to MS2 coat protein. As to the kind of experiment: apparent KD of MS2 coat protein; designed switch direction (-1 OFF switch, 1 ON switch): -1; higher = weaker reporter binding. In short, it runs like this: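 Apparent KD, taken as the median over clusters for each design, was obtained by curve-fitting normalised cluster fluorescence. Designed RNA switches had been transcribed on Illumina chips by stalled E. coli RNA polymerase and titrated with SNAP-549-labelled MS2 coat protein, doubling from 0.7 or 1.5 nM to 3 µM.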

[1] abbreviates: Eterna round: R95, input ligand: microRNA oligo, concentration not stated.
Setting [2] is: Eterna round: R95, input ligand: FMN 200 uM.
[3] abbreviates: Eterna round: R95, input ligand: none.

Take “UGCAGACGAGGAUAUAGAUUUAAGUACAUGAGGAUCACCCAUGUACAUAUGUAUUUAGAUUUAGAAGGCGUCUGCA [E5/16-A2] (Eterna round: R97, puzzle: Exclusion 5)”: the “apparent KD of MS2 coat protein” value runs as follows: (input ligand: FMN 200 uM) 28.2 nM; (input ligand: none) 27.7 nM.

Take “UGCAGACGAGGAUAUAGAUUUAGAUACAUGAGGAUCACCCAUGUAUAGAUGUAUUUAGAUUUAGAAGGCGUCUGCA [E5/13-A1] (Eterna round: R97, puzzle: Exclusion 5)”: the “apparent KD of MS2 coat protein” value runs as follows: (input ligand: FMN 200 uM) 401 nM; (input ligand: none) 305 nM.

For “UGCAGACGAGGAUAUAGAUUUGAUAACAUGAGGAUCACCCAUGUGAUCGAUAGAUCAGAUUUAGAAGGCGUCUGCU [E5/8-A4] (Eterna round: R97, puzzle: Exclusion 5)”, the “apparent KD of MS2 coat protein” value reads like this: (input ligand: FMN 200 uM) 586 nM; (input ligand: none) 715 nM.

As for “UGCAUCUGAGGAUAUCACAUGUGGAACAUGAGGAUCACCCAUGUGAUCCACAUGCCGUUGUGAGAAGGCAGUAAAA [Isteon] (puzzle: Exclusion 5)”, the “apparent KD of MS2 coat protein” value under setting [1] is 268 nM.

Turning to “UGCAUGCUAGGAUAUACGAAACAUUAGGGUUCUUUGUGUGAACAUGAGGAUCACCCAUGUAGAAGGAGCGUGCU [Mod8 of JL-ex2-2.15 mat747 mod] (puzzle: Exclusion 2)”, the “apparent KD of MS2 coat protein” value under setting [1] was found to be 127 nM.

“UGCAUGCUAGGAUAUACGGGACAUUAGGGUUCGUUGUGUGGACAUGAGGAUCACCCAUGUAGAAGGAGCGUGCU [Mod of JL-ex2-2.15 mat747 mod] (puzzle: Exclusion 2)”: under setting [1], the “apparent KD of MS2 coat protein” value was 69.3 nM.

Take “UGCAUGCUAGGAUAUACGGGACAUUAGGGUUUGUCGUGUGGACAUGAGGAUCACCCAUGUAGAAGGAGCGUGCU [Mod2 of JL-ex2-2.15 mat747 mod] (puzzle: Exclusion 2)”: the “apparent KD of MS2 coat protein” value under setting [1] came out at 43.6 nM.

As to “UGCAUGCUAGGAUAUGCCGAGGAGAACAUGAGGAUCACCCAUGUGACCCGGAUGCCUUGAGCAGAAGGAGCUACUA [EX5 C.19] (Eterna round: R97, puzzle: Exclusion 5)”, the “apparent KD of MS2 coat protein” value is, setting by setting: (input ligand: FMN 200 uM) 22.4 nM; (input ligand: none) 15.2 nM.

With “UGCAUGUGAGGAUAUGUGUACUGUCUUUUGUUUAGAUGUACACAGAAGGCACAUGAGGAUCACCCAUGUAGUAC [Ex4 - 3 - 34] (puzzle: Exclusion 4)”, the “apparent KD of MS2 coat protein” value under setting [1] stood at 59.1 nM.

Consider “UGCCGUAGAGGAUAUACAUUGAAAUAGAUUCAUGUAAAACUACAUGAGGAUCACCCAUGUAGAAGGCUAUGGCU [JL-ex2-4.34 Eli mod] (Eterna round: R97, puzzle: Exclusion 2)”, for which the “apparent KD of MS2 coat protein” value is, setting by setting: (input ligand: FMN 200 uM) 68.4 nM; (input ligand: none) 23 nM.

For the sequence “UGCCGUAGAGGAUAUACAUUGAAUAAGAUUCAUGUAAAACUACAUGAGGAUCACCCAUGUAGAAGGCUAUGGCU [JL-ex2-4.37 Eli mod] (Eterna round: R97, puzzle: Exclusion 2)”, the “apparent KD of MS2 coat protein” value was determined as 38.6 nM (input ligand: FMN 200 uM) and 14.7 nM (input ligand: none).

On to “UGCCUACAUGAGGAUCACCCAUGUGAGGAUAUCCUGCGAGGAUCAAAAGAUCCUCGUGGGAGAAGGCACAUGAA [Omei Ex1 B1] (Eterna round: R97, puzzle: Exclusion 1)”, for which the “apparent KD of MS2 coat protein” value was found to be 146 nM (input ligand: FMN 200 uM) and 38.5 nM (input ligand: none).

With “UGCCUUUGAGGAUAUACAUAGAAAUAGAUUCAUGUAAAACUACAUGAGGAUCACCCAUGUAGAAGGCAAGGGCU [Mat - Exclusion 2 - JL Mod - D52] (Eterna round: R97, puzzle: Exclusion 2)”, the “apparent KD of MS2 coat protein” value by setting is: (input ligand: FMN 200 uM) 83.6 nM; (input ligand: none) 24 nM.

Consider “UGCGUUAGAGGAUAUACGUAGAACUAGGUUCAUGUAAAACUACAUGAGGAUCACCCAUGUAGAAGGCUAGCGCU [Mat - Exclusion 2 - JL Mod - D43] (Eterna round: R97, puzzle: Exclusion 2)”, for which the “apparent KD of MS2 coat protein” value reads like this: (input ligand: FMN 200 uM) 20.4 nM; (input ligand: none) 15.4 nM.

For the sequence “UGCUACGGAGGAUAUACAUGAGGAUCACCCAUGUGUGAGAUUUGGCCGAGAGGCCAAUGUAGAAGGCCGUAGCU [jl-ex3-4.20 jl mod] (Eterna round: R97, puzzle: Exclusion 3)”, the “apparent KD of MS2 coat protein” value (input ligand: FMN 200 uM) amounted to 371 nM and the “apparent KD of MS2 coat protein” value (input ligand: none) was found to be 35.9 nM.

For the sequence “UGCUAGUCAGGAUAUACGAACAUGUCAAAAGACGUGAAGGGACAUGAGGAUCACCCAUGUAGAAGGGACUAGCG [salish99_ex2_r3_007] (puzzle: Exclusion 2)”, the “apparent KD of MS2 coat protein” value under setting [2] is 144 nM, the “apparent KD of MS2 coat protein” value under setting [1] stood at 27.2 nM and the “apparent KD of MS2 coat protein” value under setting [3] was 27.9 nM.

Consider “UGGCGUUAAGGAUAUACAUGAGGAUCACCCAUGUUUCGGGAGAGCCAUUGAGCCGCAAGUAGAAGGUAGUACCC [Eternabot (L2) Solution 23] (Eterna round: R97, puzzle: Exclusion 3)”, for which the “apparent KD of MS2 coat protein” value worked out at 37.4 nM (input ligand: FMN 200 uM) and 47.9 nM (input ligand: none).

Turning to “UGGCUAAGAGGAUAUACAUUGAAUAAGAUUCAUGUAAAACUACAUGAGGAUCACCCAUGUAGAAGGCUUGGCCU [Mat - Exclusion 2 - JL Mod - D72] (Eterna round: R97, puzzle: Exclusion 2)”, the “apparent KD of MS2 coat protein” value was determined as 25.4 nM (input ligand: FMN 200 uM) and 17.4 nM (input ligand: none).

With “UGGGUACUCCAUAGAAGAGACAUGAGGAUCACCCAUGUAGGACAAGCUUUUUGCUCGUCUUAAGAUGAGAGAUAGGA [JR_SV3TOV1_Sub013] (puzzle: Sensor v3, turn-off variant 1)”, the “apparent KD of MS2 coat protein” value came to 143 nM under setting [2], 114 nM under setting [1] and 126 nM under setting [3].

With “UGGGUACUCCAUAGAAGAGACAUGAGGAUCACCCAUGUAGGGCAAGCUUUUUGCUCGUCUUAGGUUGAGGGAUAGGA [JR_SV3TOV1_Sub015] (puzzle: Sensor v3, turn-off variant 1)”, the “apparent KD of MS2 coat protein” value is, setting by setting: under setting [2], 166 nM; under setting [1], 80.7 nM; under setting [3], 280 nM.

As for “UGGUCACAUGAGGAUCACCCAUGUCAGGAUAUCGUCACUGGAGCUUCGGCUCCAGUGACGAGAAGGGACAUAAU [E1/6-A1] (Eterna round: R97, puzzle: Exclusion 1)”, the “apparent KD of MS2 coat protein” value is, setting by setting: (input ligand: FMN 200 uM) 47 nM; (input ligand: none) 394 nM.

Turning to “UGGUGUGAAGGAUAUACAUGAGGAUCACCCAUGUAUGAGGUGGAGGUUGAGGUGGAGGGUAGAAGGUCAGGUGG [JR_Exclusion3_Sub012] (puzzle: Exclusion 3)”, the “apparent KD of MS2 coat protein” value under setting [1] turned out to be 26.8 nM.

For “UGGUGUGAAGGAUAUACAUGAGGAUCACCCAUGUAUGUGGUGUGUGUUGAGGUGGAGGGUAGAAGGUCAGGUGG [JR_Exclusion3_Sub014] (puzzle: Exclusion 3)”, the “apparent KD of MS2 coat protein” value under setting [1] is 35.9 nM.

In the case of “UGUAACCUAGGAUAUACAUGAGGAUCACCCAUGUAAUGUAGUAUAGUGUGUGUAAGGUGUAGAAGGAGGAAUGU [LRO-Excl05-23-Smart Aleck] (Eterna round: R97, puzzle: Exclusion 3)”, the “apparent KD of MS2 coat protein” value runs as follows: (input ligand: FMN 200 uM) 76.2 nM; (input ligand: none) 52.6 nM.

As to “UGUACGAUGCGUGCUGACAUGCGUCGUGCAGCAAGCUUUACAUGAGGAUCACCCAUGUCCUCACUUGCUCGUCUUGU (puzzle: Sensor v3, turn-off variant 2)”, the “apparent KD of MS2 coat protein” value amounted to 643 nM under setting [2], 21.3 nM under setting [1] and 490 nM under setting [3].
